The results in this text go back to patent US20200140552A1 (Sanofi, published 2020).

Positions count from the first letter of the chain named.

Assay [1] concerns the target T1, recombinant human CD38 (SPR antigen of Example 2) (human, UniProt P28907 43-300). Put plainly: SPR, target binding without other targets present. (In general: Surface plasmon resonance follows binding to a sensor surface in real time, without labels.)
Assay [2] has as its target T1, recombinant human CD38 (SPR antigen of …). Put plainly: SPR, target binding with the other two targets in saturation.
Assay [3] addresses T2, human CD38 expressed on the surface of recombinant murine preB::300.19 cells (human, UniProt P28907 1-300).
T2 construct: whole, on cells; also called hCD38-expressing cells; cells expressing human CD38
Put plainly: flow cytometry on hCD38-expressing murine preB::300.19 cells, apparent KD (called EC50 in paragraph 335). For orientation: Flow cytometry measures light scatter and fluorescence of single cells or particles in a stream.

A further assay concerns the target T3, hCD38-his (SEQ ID NO: 2) (human, UniProt P28907 45-300).
T3 construct: also called human CD38-histag (ID2); soluble extracellular domain of humanCD38
The assay is described as follows: SPR (summary table; Table K value rounded).

Assay [4] deals with T2, human CD38 expressed on the surface of …. The assay is described as follows: flow cytometry on CD38-expressing murine preB::300.19 cells, apparent KD.
A further assay has as its target T4, cCD38-his (SEQ ID NO: 4) (cynomolgus monkey, UniProt Q5VAN0 46-301).
T4 construct: also called cyno CD38-histag (ID3); soluble extracellular domain of cynomolgusCD38
Put plainly: SPR (summary table; Table K value rounded).

B1: CD38SB19xCD28supxCD3mid trispecific binding protein (other)
VH 1: QVQLVQSGAEVVKPGASVKVSCKASGYTFTSYYIHWVRQAPGQGLEWIGSIYPGNVNTNYAQKFQGRATLTVDTSISTAYMELSRLRSDDTAVYYCTRSHYGLDWNFDVWGKGTTVTVSS
VL 1: DIQMTQSPSSLSASVGDRVTITCQASQNIYVWLNWYQQKPGKAPKLLIYKASNLHTGVPSRFSGSGSGTDFTLTISSLQPEDIATYYCQQGQTYPYTFGQGTKLEIK
VH 2: QVQLVESGGGVVQPGRSLRLSCAASGFTFTKAWMHWVRQAPGKQLEWVAQIKDKSNSYATYYADSVKGRFTISRDDSKNTLYLQMNSLRAEDTAVYYCRGVYYALSPFDYWGQGTLVTVSS
VL 2: DIVMTQTPLSLSVTPGQPASISCKSSQSLVHNNANTYLSWYLQKPGQSPQSLIYKVSNRFSGVPDRFSGSGSGTDFTLKISRVEAEDVGVYYCGQGTQYPFTFGSGTKVEIK
VH 3: QVQLVQSGAEVAKPGTSVKLSCKASGYTFTDYWMQWVKQRPGQGLEWIGTIYPGDGDTGYAQKFQGKATLTADKSSKTVYMHLSSLASEDSAVYYCARGDYYGSNSLDYWGQGTSVTVSS
VL 3: DIVMTQSHLSMSTSLGDPVSITCKASQDVSTVVAWYQQKPGQSPRRLIYSASYRYIGVPDRFTGSGAGTDFTFTISSVQAEDLAVYYCQQHYSPPYTFGGGTKLEIK
Turning to B1, the Kd was 1.75 nM in assay [1], 2.42 nM in assay [2] and 4 nM in assay [3].

B2: antiCD38_C2-CD38-1_VH5-VL3 (antibody, human IgG1, kappa, V domains shown)
VH: QVQLVQSGAEVVKSGASVKVSCKASGYTFTSFNMHWVKEAPGQGLEWIGYIYPGNGGTNYNQKFQGRATLTADTSASTAYMEISSLRSEDTAVYFCARTGGLRRAYFTYWGQGTLVTVSS
VL: DIVLTQSPATLSLSPGERATISCRASESVDSYGNGFMHWYQQKPGQPPRLLIYLASSRATGIPARFSGSGSGTDFTLTISPLEPEDFAVYYCQQNKEDPWTFGGGTKLEIKR
As for B2, the Kd turned out to be 0.82 nM with hCD38-his (SEQ ID NO: 2) and 0.55 nM in assay [4].

B3: antiCD38_C2-CD38-1_VH6-VL3 (antibody, human IgG1, kappa, V domains shown)
VH: B2 VH with S14P, V20M, G44R
VL: B2 VL
Consider B3, for which the Kd worked out at 0.31 nM with hCD38-his (SEQ ID NO: 2) and 0.56 nM with cCD38-his (SEQ ID NO: 4).
